Measurements as given in article PMC314469, “Protein Interaction Networks by Proteome Peptide Scanning” (PLoS Biology, 2004).

T1: Myo5 SH3 (MYO5_YEAST), Q04439
T1 chain: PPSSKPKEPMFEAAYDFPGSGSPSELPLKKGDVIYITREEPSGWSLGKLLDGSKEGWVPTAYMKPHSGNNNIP

T2: Abp1 SH3 (ABP1_YEAST), P15891
T2 chain: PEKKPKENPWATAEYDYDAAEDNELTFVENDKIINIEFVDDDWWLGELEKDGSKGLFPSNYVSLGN

T3: Yfr024 SH3 (LSB3_YEAST), P43603
T3 chain: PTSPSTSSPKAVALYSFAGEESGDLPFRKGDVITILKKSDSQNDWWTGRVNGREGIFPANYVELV

T4: Boi2 SH3 (BOI2_YEAST), P39969
T4 chain: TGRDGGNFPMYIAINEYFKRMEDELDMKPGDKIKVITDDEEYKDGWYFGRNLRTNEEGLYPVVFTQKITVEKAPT

T5: Boi1 SH3 (BOI1_YEAST), P38041
T5 chain: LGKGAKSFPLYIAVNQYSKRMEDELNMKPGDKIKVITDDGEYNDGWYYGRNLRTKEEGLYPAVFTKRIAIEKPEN

T6: Yhr016c SH3 (YSC84_YEAST), P32793
T6 chain: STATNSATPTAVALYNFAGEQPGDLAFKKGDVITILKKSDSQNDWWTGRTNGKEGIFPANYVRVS

T7: Rvs167 SH3 (RV167_YEAST), P39743
T7 chain: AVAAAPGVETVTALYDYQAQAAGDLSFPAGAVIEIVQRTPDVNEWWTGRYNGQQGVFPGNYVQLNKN


Key:
Assay in all cases: SPOT array
[1] = molecular target: Sho1 SH3 (SHO1_YEAST), P40073
Sho1 SH3 (SHO1_YEAST), P40073, sequence (P40073 295-366): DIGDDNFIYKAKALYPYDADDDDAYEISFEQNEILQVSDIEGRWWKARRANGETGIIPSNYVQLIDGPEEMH

[2] = molecular target: T1, Myo5 SH3 (MYO5_YEAST), Q04439
[3] = molecular target: T2, Abp1 SH3 (ABP1_YEAST), P15891
[4] = molecular target: T3, Yfr024 SH3 (LSB3_YEAST), P43603
[5] = molecular target: T4, Boi2 SH3 (BOI2_YEAST), P39969
[6] = molecular target: T5, Boi1 SH3 (BOI1_YEAST), P38041
[7] = molecular target: T6, Yhr016c SH3 (YSC84_YEAST), P32793
[8] = molecular target: T7, Rvs167 SH3 (RV167_YEAST), P39743

Row | Binder | normalised SPOT signal, Boehringer light units (BLU); mean over the file's lines of this peptide [1] | other results
1 | PFIPKFPSRESVES | 163 | –
2 | QGQPLPPPRGQVIL [287-300 Hypothetical ORF] | 159 | –
3 | PLQPRPPVKPLSKQ [87-100 35 kDa mitochondrial ribosomal small subunit protein] | 85.4 | –
4 | QGLPASPSRAALRY [55-68 chitin synthase 2] | 140 | –
5 | QKTPPSPAKPKQKT [26-39 Component of the exocyst complex; homolog in rat brain called rExo84.] | 203 | –
6 | NYIPPDPPKDIQLN [239-252 Hypothetical ORF] | 38.1 | –
7 | NVDPASPWRHELLS [76-89 Hypothetical ORF] | 102 | –
8 | PLIPDNPGRLLSSK [311-324 Hypothetical ORF] | 83.2 | –
9 | NLDPNPPVRGENLT [61-74 Hypothetical ORF] | 206 | –
10 | WETWLYKPGMPPRP [YNL045W 490-503] | – | normalised SPOT signal, Boehringer light units (BLU); mean over the file's lines of this peptide [2]: 255; normalised SPOT signal, Boehringer light units (BLU); mean over the file's lines of this peptide [3]: 310
11 | ILTSLPVPPPPVRP [YDL140C 235-248] | – | normalised SPOT signal, Boehringer light units (BLU); mean over the file's lines of this peptide [2]: 617; normalised SPOT signal, Boehringer light units (BLU); mean over the file's lines of this peptide [3]: 208
12 | QDSPDMPEKESVYV | 118 | –
13 | PKDPSSPQRDEILT [27-40 Hypothetical ORF] | 130 | –
14 | NNNPVPPQKINQPP [198-211 Hypothetical ORF] | 190 | –
15 | PPEPATPSKKSLTT [169-182 origin recognition complex subunit 2] | 46 | –
16 | LVGMRSFPLYPSGL [YDL068W 45-58] | – | normalised SPOT signal, Boehringer light units (BLU); mean over the file's lines of this peptide [4]: 1940; normalised SPOT signal, Boehringer light units (BLU); mean over the file's lines of this peptide [5]: 325; normalised SPOT signal, Boehringer light units (BLU); mean over the file's lines of this peptide [2]: 386; normalised SPOT signal, Boehringer light units (BLU); mean over the file's lines of this peptide [6]: 512; normalised SPOT signal, Boehringer light units (BLU); mean over the file's lines of this peptide [7]: 330; normalised SPOT signal, Boehringer light units (BLU); mean over the file's lines of this peptide [8]: 387
17 | TELNLSSPNVPGKP [YKL216W 127-140] | – | normalised SPOT signal, Boehringer light units (BLU); mean over the file's lines of this peptide [2]: 228; normalised SPOT signal, Boehringer light units (BLU); mean over the file's lines of this peptide [3]: 166
18 | NSLPSSPKKQPARN [173-186 Hypothetical ORF] | 198 | –

Row | Binder | normalised SPOT signal, Boehringer light units (BLU); mean over the file's lines of this peptide [1] | other results
19 | PNEPGAPSRLSFEN [285-298 ubiquitin carboxyl-terminal hydrolase] | 85.1 | –
20 | QGEPLDPKRPSTAS [141-154 glucosidase I] | 124 | –
21 | QEKPLTPLKYTKLI [160-173 subunit of the chromatin remodeling Snf/Swi complex] | 143 | –
22 | NKIPPKPRKVLQLL [93-106 Ribosomal protein L7A (L6A) (rp11) (YL8)] | 152 | –
23 | PFLPVLPQKPGGVR [35-48 succinate dehydrogenase membrane anchor subunit] | 1380 | –
24 | NIQPDLPPRKIMIP [90-103 Hypothetical ORF] | 197 | –
25 | QLFPVRPVRVRHED [198-211 " RNA polymerase III (C) subunit, homologus to human BN51 protein"] | 95.2 | –
26 | QGYPRQPQRPQRYH [27-40 "heat shock protein similar to HSP26, involved in cytoskeleton assembly"] | 195 | –
27 | KLAILTSPFEPPKP [YJR064W 268-281] | – | normalised SPOT signal, Boehringer light units (BLU); mean over the file's lines of this peptide [2]: 173; normalised SPOT signal, Boehringer light units (BLU); mean over the file's lines of this peptide [3]: 40.4
28 | PNYPDSPPKVTFIS [66-79 Similar to ubiquitin conjugating protein family] | 187 | –
29 | PSNPALPKKLLNVP [345-358 negative regulator of early meiotic genes] | 178 | –
30 | NKVPTNPKKFKKAP [326-339 " involved in silencing at telomeres, HML, and HMR"] | 291 | –
31 | QNTPPLPPKPKSPH [175-188 homologous to mouse and human Tsg101 tumor susceptibility genes] | 8430 | –
32 | QIFPKKPLRRTVMS [166-179 involved in ion homeostasis] | 534 | –
33 | NMVPLNPNRIIPDE [189-202 Product of gene unknown] | 130 | –
34 | PVYPSLPERSKVIL [44-57 telomere binding protein] | 210 | –
35 | NSPPVYPKRIRHFE [22-35 Hypothetical ORF] | 177 | –
36 | QPAPRIPSKDAIIS [100-113 transcription factor] | 498 | –

Second part, led by results:

Row | normalised SPOT signal, Boehringer light units (BLU); mean over the file's lines of this peptide [1] | Binder | other results
37 | 46.5 | QLLPNVPDKVLVPG [391-404 binds to single-stranded TG1-3 telomere G-tails] | –
38 | 339 | NLKPERPSKVSFEM [548-561 " Non-membrane-embedded, PEST sequence-containing protein"] | –
39 | 144 | PNSPTPPLKSKVSR [1337-1350 transcriptional regulator] | –
40 | 117 | NIQPNIPLRSYRYL [782-795 Hypothetical ORF] | –
41 | 5820 | PVGPKVPAKEPSPK [874-887 Hypothetical ORF] | –
42 | 228 | PIMPTLPPRPYITI [537-550 Hypothetical ORF] | –
43 | 261 | PPPPPPPSRKSGTP [477-490 Hypothetical ORF] | –
44 | 144 | PPVPKAPSRRSSSL [943-956 negative regulator of early meiotic gene expression] | –
45 | 82.5 | NVQPRKPSRVHSRN [634-647 Hypothetical ORF] | –
46 | 900 | PLPPIPPTKSKTSP [535-548 serine/threonine protein kinase] | –
47 | 57.6 | QLTPLLPDKYFDSA [693-706 putative transcription factor] | –
